# Results as given in US20110124572A1, “SYNDECAN-4 IS A REGULATOR OF RAC1-GTP” (priority 2008, published 2011).
# Where “and” joins values, the source holds several entries; their conditions need not be identical. Equal values may be shown once.
# Assays:
# Tiam-1 = molecular target: T1, Tiam-1 (Homo sapiens, UniProt Q13009); assay: Immunoprecipitation with anti-Tiam-1; type: binding; conditions: for Rac1 in the Tiam-1 precipitate: lysate of cells expressing the variant
# T1 construct: we tested whether syndecan-4 can be co-immunoprecipitated by anti-Tiam-1; endogenous in cells; host or cells: MCF-7 lines expressing wt, Ser179Ala or Ser179Glu syndecan-4-GFP (RIPA lysates, GDP- or γ-S-GTP-saturated)
# T1 sequence (Q13009 whole entry): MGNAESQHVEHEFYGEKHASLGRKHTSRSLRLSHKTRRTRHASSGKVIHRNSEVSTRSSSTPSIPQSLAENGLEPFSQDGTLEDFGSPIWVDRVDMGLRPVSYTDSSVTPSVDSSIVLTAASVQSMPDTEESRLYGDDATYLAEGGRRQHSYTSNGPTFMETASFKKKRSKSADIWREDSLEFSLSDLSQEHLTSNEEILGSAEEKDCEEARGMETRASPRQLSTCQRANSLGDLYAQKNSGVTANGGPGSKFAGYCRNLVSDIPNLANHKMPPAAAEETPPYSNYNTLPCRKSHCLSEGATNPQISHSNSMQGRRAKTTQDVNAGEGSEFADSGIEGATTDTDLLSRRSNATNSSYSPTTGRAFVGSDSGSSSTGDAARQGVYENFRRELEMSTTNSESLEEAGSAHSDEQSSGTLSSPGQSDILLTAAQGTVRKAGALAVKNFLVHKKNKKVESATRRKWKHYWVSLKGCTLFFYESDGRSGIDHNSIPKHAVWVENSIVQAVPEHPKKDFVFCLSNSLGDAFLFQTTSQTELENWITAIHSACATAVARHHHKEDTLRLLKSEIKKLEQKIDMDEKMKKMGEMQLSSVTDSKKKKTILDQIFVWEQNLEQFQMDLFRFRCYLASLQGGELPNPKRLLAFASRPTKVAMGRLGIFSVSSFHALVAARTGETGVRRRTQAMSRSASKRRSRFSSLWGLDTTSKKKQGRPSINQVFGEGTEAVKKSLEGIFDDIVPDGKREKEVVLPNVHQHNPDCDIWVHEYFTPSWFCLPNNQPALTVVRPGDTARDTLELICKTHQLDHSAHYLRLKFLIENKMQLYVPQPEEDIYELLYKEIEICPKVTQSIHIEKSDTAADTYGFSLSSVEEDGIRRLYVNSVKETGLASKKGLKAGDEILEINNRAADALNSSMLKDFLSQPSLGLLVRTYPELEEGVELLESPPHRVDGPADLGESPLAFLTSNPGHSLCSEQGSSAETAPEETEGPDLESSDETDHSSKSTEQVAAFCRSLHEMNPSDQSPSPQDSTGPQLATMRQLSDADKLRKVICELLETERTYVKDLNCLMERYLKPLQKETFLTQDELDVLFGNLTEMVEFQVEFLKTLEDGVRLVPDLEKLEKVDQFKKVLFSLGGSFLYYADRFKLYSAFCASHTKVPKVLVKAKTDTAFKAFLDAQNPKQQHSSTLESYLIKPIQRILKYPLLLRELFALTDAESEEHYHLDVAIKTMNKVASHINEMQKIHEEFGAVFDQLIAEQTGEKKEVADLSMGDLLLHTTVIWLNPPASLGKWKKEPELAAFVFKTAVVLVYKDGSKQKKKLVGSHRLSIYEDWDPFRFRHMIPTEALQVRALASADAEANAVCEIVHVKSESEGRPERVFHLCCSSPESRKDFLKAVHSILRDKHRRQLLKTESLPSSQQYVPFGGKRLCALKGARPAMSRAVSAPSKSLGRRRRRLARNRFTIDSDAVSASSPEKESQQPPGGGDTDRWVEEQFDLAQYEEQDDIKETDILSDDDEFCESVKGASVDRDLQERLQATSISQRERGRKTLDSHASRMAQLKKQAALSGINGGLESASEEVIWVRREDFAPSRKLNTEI
# Method: In brief, 70% confluent cultures of 25 mL flask were detached, pelleted and following 2 times washing with PBS. The pellet were lysed in RIPA buffer then centrifuged and the supernatant was pre-cleared by addition of 5 μL of protein A/G-sepharose beads slurry (Pierce) for 2 hours, then the supernatant was incubated with the antibody of interest for 24 hours. 10 μL of protein A/G slurry was added for 2 hours, collected by pulse centrifugation, washed 3 times with lysis buffer, resuspended in 2×SDS loading buffer subjected to SDS-PAGE, followed by immunoblotting with the appropriate antibodies.
# Since Tiam-1 is a Rac1-GEF (GTP exchange factor) and it could be pulled down by PAK-PKB (Mendoza-Naranjo et al., 2006) we tested whether syndecan-4 can be co-immunoprecipitated by anti-Tiam-1. The syndecan-4 chimeras were detected by anti-syndecan-4 and anti-GFP antisera at 55 kDa and 90 kDa length, which were correspondent to the monomer and dimmer forms, respectively. Because the co-sedimentation of syndecan-4 by PAK-PKB was GDP-GTP dependent we tested if the GDP or GTP had effect for the amount of the anti-Tiam-1-co-immunoprecipitated syndecan-4 forms.
# PDZ domain of Tiam-1 was reported to bind peptides containing amino acid sequence of FYA (Songyang et al., 1997) that is part of the cytoplasmic segment of syndecan-4. Therefore syndecan-4 seemed a good candidate to interact with Tiam-1. In the immunoprecipitate of Tiam-1 syndecan-4 variants were detected by anti-syndecan-4 or anti-GFP antisera at 55 kDa length, which was correspondent to the monomer forms. There was no significant difference in the binding of Tiam-1 and syndecan-4 variants in the GDP or γ-S GTP saturated cases.
# Considering that phospho-syndecan-4 down-regulates the Rac1 activity consequently Rac1 was also tested in the Tiam-1 precipitate to study the nature of inhibition. If the Rac1 activity were regulated by direct interaction of syndecan-4 we might expect a trapped intermedier as it was found in the case of Brefeldin A (Renault et al., 2003).
# Rac1 = Rac1 GTPase pulldown assay (Rac1-GTP level); type: cell-based, human; conditions: for relative Rac1-GTP level: relative to non-treated wt-syndecan-4; for reduction of activated Rac1 (GTP-Rac1) level: Gö6976 treatment
# Method: (§1) Rac1 activity was characterised by applying RAC-activation kit purchased from Millipore (Upstate) and it was used according to the manufacturer's prescription. Briefly, p21-binding domain of PAK-1 was fused to agarose beads, which specifically binds to and precipitates Rac-GTP and Cdc42-GTP from cell lysates. Cells were harvested at 70% confluency of 25 ml flasks. The wild type Syndecan-4, Ser179Ala and Ser179Glu cells were treated for 60 minutes with 1 μM PMA (Sigma-Aldrich), or 500 nM rottlerin (Sigma-Aldrich), or 10 nM Gö6976 (Biosource, Camarillo, Calif., USA). The active Rac1 was detected by Western blotting using mouse anti-Rac1 antibody (Upstate). To test whether GST-Pak1-Rac/Cdc42-binding domain could pull syndecan-4 down, the blot was probed with rabbit polyclonal anti-syndecan-4 or mouse monoclonal anti-GFP antibody.
# MCF-7 cells [1] = assay: Scratch-wound assay; type: cell-based, human; conditions: for time to closure of the scratch gap: fibronectin, scratched at 80% confluence
# Method: (§2) The MCF-7 breast adenocarcinoma cells were obtained from ATCC, cultured in DMEM:F12 (Cambrex, Walkersville, Md., USA) supplemented with 10% fetal bovine serum (FBS) (Gibco, Bethesda, Md., USA), otherwise stated. The stably transfected cell lines were propagated in DMEM:F12 medium supplemented with 10% FBS and 200 μg/ml G418 (Cambrex, Walkersville, Md., USA). The cell lines were seeded onto glass coverslips or plastic dishes coated for 2 h with 10 μg/ml fibronectin (Sigma-Aldrich, St. Louis, Mo., USA). Scratch-wound assays were performed on stable transfected Syndecan-4 wild, Ser179Ala and Ser179Glu cells at 80% confluency. The cultures were scratched with a sterile P10 pipette tip 3-4 times in parallel lines. Images were taken 12, 24, 36 and 48 h following wounding.
# The wt-syndecan-4, Ser179Ala, and Ser179Glu lines were tested how they close the scratched wound on fibronectin substratum. At 80% confluence the cultures were scratch-wounded and healing was monitored. Still images were captured at the indicated time points (FIG. 1). In monolayers of the wt-syndecan-4 and the Ser179Ala lines the wounds healed from the edges, i.e. progenies of cell division narrowed the scratch but kept tight contact with the cell layer. […] The gaps closed in every case almost at the same time, in 42 hour. There was no difference in the growth rate of the different lines measured by SRB assay (data not shown).
# MCF-7 cells [2] = assay: Cell migration assay (time-lapse) on fibronectin; type: cell-based, human; conditions: MCF-7 line expressing the syndecan-4 variant, fibronectin
# Method: as §2
# In the cell migration assay 60% confluent MCF7 cells or the stably transfected lines were stimulated by 1 μM phorbol-12-myristate-13-acetate (PMA; from Sigma-Aldrich St. Louis, Mo., USA), otherwise stated. The images were taken using 10×, 20×0.3 objective at 3-min intervals for 2 h using inverted microscope (Leica) and organized into time-lapse movies in Adobe ImageReady® v. 8.
# Results of the previous scratch-wound assay gave a hint that the Ser179Glu cells gained a migratory phenotype. […]
# [3] = tested on: GTP-Rac/Cdc42-PAK complex; assay: Pull-down of syndecan-4 by Rac1/CDC42-binding domain of PAK; parameters: species or system human; conditions: PAK-PKB pull-down, no γ-S GTP
# Method: as §1
# We tested whether the protein complex pulled down with the Rac1/CDC 42-binding domain of PAK (PAK-PKB) used in the Rac1 assay contained syndecan-4. Parallel filter of the Rac1 assay was probed with anti-syndecan-4 or anti-GFP antisera. The syndecan-4-GFP monomers migrating with 55 kDa relative electrophoretic mobility gave strong signals (FIG. 6). The amount of pulled-down syndecan-4 was in accordance with Rac1 level detected in the different syndecan-4 constructs (FIG. 6). […] When γ-S GTP was applied to the cell lysates to equalize the pulled-down Rac1-GTP level there was no difference in the amount of pulled-down syndecan-4 variants (FIG. 6). So, the affinity of the different syndecan-4 mutants is the same to the GTP-Rac/Cdc42-PAK complex. […]
# We tested syndecan-4 whether it was pulled down by the Rac1/CDC 42-binding domain of PAK (PAK-PKB) used in the Rac1 assay. The syndecan-4-GFP monomers were detected as a 55 kDa relative electrophoretic mobility band probed with anti-syndecan-4 or anti-GFP antisera. […] The amount of pulled-down syndecan-4 was in accordance with Rac1 level detected in the different syndecan-4 constructs (FIG. 6). […]
syndecan-4 form co-immunoprecipitated by anti-Tiam-1 (Tiam-1; cell lysate saturated by GDP),Rac1 in the Tiam-1 precipitate (Tiam-1),relative Rac1-GTP level (Rac1; 10 nM Gö6976 60 min),relative Rac1-GTP level (Rac1; 1 μM PMA 60 min),reduction of activated Rac1 (GTP-Rac1) level (Rac1) [fold],relative Rac1-GTP level (Rac1; nt (non-treated)),"amount of pulled-down syndecan-4, less than from the Ser179Ala line [3]","amount of pulled-down syndecan-4, more than the wt-syndecan-4 [3]",syndecan-4 form co-immunoprecipitated by anti-Tiam-1 (Tiam-1; γ-S GTP saturated lysate),"decrease of the Rac1-GTP level (Rac1; expression of the variant, untreated) [fold]",amount of pulled-down syndecan-4 [3],Molecule,time to closure of the scratch gap (MCF-7 cells [1]) [h],migration (MCF-7 cells [2]; 1 μM PMA),cell motility in the scratched area (MCF-7 cells [1]; by 12 hours following wounding),migration (MCF-7 cells [2]; nt (non-treated)) [μm/min]
dominant,observed,0.25 ± 0.03,0.25 and 0.25 ± 0.05,4.2±0.4,1,approximately 20%,,,,,"wt-syndecan-4: human syndecan-4 with GFP inserted at position 131, stably expressed in MCF-7 cells (protein, left off: large carriers, human syndecan-4 with GFP inserted at position 131, stably expressed in MCF-7 cells) ESIRETEVIDPQDLLEGRYFSGALPDDEDVVGPGQESDDFELSGSGDLDDLEDSMIGPEVVHPLVPLDNHIPERAGSGSQVPTEPKKLEENEVIPKRISPVEESEDVSNKVSMSSTVQGSNIFERTEVLAALIVGGIVGILFAVFLILLLMYRMKKKDEGSYDLGKKPIYKKAPTNEFYA",42,0.3±0.1 μm/min and 0.3 μm/min,,
dominant,observed,1±0.1 and 1 ± 0.01,0.46 ± 0.05,,1.9±0.15,,approximately 20%,,,,"Ser179Ala: phosphodefective Ser179 to Ala mutant of human syndecan-4-GFP, expressed in MCF-7 cells (protein, UniProt P31431 19-198, looked up, variant S179A, GFP inserted at position 131, phosphodefective Ser179 to Ala mutant of human syndecan-4-GFP, expressed in MCF-7 cells) Syndecan-4: ESIRETEVIDPQDLLEGRYFSGALPDDEDVVGPGQESDDFELSGSGDLDDLEDSMIGPEVVHPLVPLDNHIPERAGSGSQVPTEPKKLEENEVIPKRISPVEESEDVSNKVSMSSTVQGSNIFERTEVLAALIVGGIVGILFAVFLILLLMYRMKKKDEGAYDLGKKPIYKKAPTNEFYA",42,,,
,,0.06 ± 0.02,0.9±0.2 and 0.95 ± 0.06,16±2,0.6±0.1,,,detected abundantly,1.5,hardly detectable,"Ser179Glu: phosphomimetic Ser179 to Glu mutant of human syndecan-4-GFP, expressed in MCF-7 cells (protein, UniProt P31431 19-198, looked up, variant S179E, GFP inserted at position 131, phosphomimetic Ser179 to Glu mutant of human syndecan-4-GFP, expressed in MCF-7 cells) Syndecan-4: ESIRETEVIDPQDLLEGRYFSGALPDDEDVVGPGQESDDFELSGSGDLDDLEDSMIGPEVVHPLVPLDNHIPERAGSGSQVPTEPKKLEENEVIPKRISPVEESEDVSNKVSMSSTVQGSNIFERTEVLAALIVGGIVGILFAVFLILLLMYRMKKKDEGEYDLGKKPIYKKAPTNEFYA",42,,enhanced cell motility,0.4±0.1
